Series [1] deals with sphingosine kinase activity in HEK293 cells. Briefly: Transient expression of hSK and TNFα stimulation of sphingosine kinase activity in HEK293 cells. Type of series: cell-based, human. As to the method: (§1) Sphingosine kinase activity was routinely determined using D-erythro-sphingosine and [γ^32P]ATP as substrates, essentially as previously described (Olivera et al., 1998) with some modifications. Briefly, assays were performed by incubating samples at 37° C. for 30 min with sphingosine (100 μM stock dissolved in 5% Triton X-100) and [γ-^32P]ATP (1 mM; 10 μCi/ml) in assay buffer containing 100 mM Tris/HCl (pH 7.4), 10 mM MgCl2 10% (v/v) glycerol, 1 mM dithiothreitol, 1 mM EGTA, 1 mM Na3VO4, 15 mM NaF, 0.5 mM 4-deoxypyridoxine in a total volume of 100 μl. Reactions were terminated and sphingosine-1-phosphate extracted by the addition of 700 μl of chloroform/methanol/HCl (100:200:1. v/v), followed by vigorous mixing, addition of 200 μp of chloroform and 200 μl of 2 M KCl, and phase separation by centrifugation. The labeled S1P in the organic phase was isolated by TLC on Silica Gel 60 with 1-butanol/ethanol/acetic acid/water (8:2:1:2, v/v) and quantitated by phosphorimager (Molecular Dynamics. Sunnyvale, Calif.). One unit (U) of activity is defined as 1pmol of S1P formed per minute.
For mammalian cell expression the hSK cDNA was FLAG epitope tagged at the 3′-end by PFU polymerase PCR with oligonucleotide primers T7 and 5′-[…]-3′ [SEQ ID NO:5]. […] The orientation was determined by restriction analysis and sequencing verified the integrity of the hSK-FLAG cDNA sequence. […]

Series [2] concerns sphingosine kinase activity in HUVEC. The series can be described thus: TNFα stimulation of sphingosine kinase activity in HUVEC extracts. Type of series: cell-based, human. The conditions noted are these: TNFα treated HUVEC (untreated HUVEC 78). As to the method:
as §1
Human umbilical vein endothelial cells (HUVEC) were isolated as previously described (Wall et al., 1978) and cultured on gelatin-coated culture flasks in medium M199 with Earle's salts supplemented with 20% fetal calf serum, 25 μg/ml endothelial growth supplement (Collaborative Research) and 25 μg/ml heparin. […]

Substrate in series [3]: CCCCCCCCCCCCC/C=C/[C@@H](O)[C@@H](N)CO
The series can be described thus: Sphingosine kinase enzyme assay with native SK purified from human placenta. The conditions noted are these: other: Native SK, 37.0 °C. The format is biochemical.

Series [4] is classed as physicochemical, human. The conditions noted are these: pH range 4 to 11, 50 mM buffers, 37° C. As for the experimental part:
The effect of pH on the activity of the isolated sphingosine kinases was determined over the pH range 4.0 to 11.0 in 50 mM buffers (sodium acetate, pH 4.0-5.0; Mes, pH 6.0-7.0; Hepes, pH 7.0-8.2; Tris/HCl, pH 8.2-10.0: Caps, pH 10.0-11.0) at 37° C. pH stability was determined by assaying the residual activity after pre-incubation of the enzymes in the same buffers for 5 h at 4° C. Similarly, thermal stabilities were determined by assaying the residual activity after pre-incubation of the enzymes at various temperatures (4-80° C.) for 30 min at pH 7.4 (50 mM Tris/HCl containing 10% glycerol, 0.5 M NaCl and 0.05% Triton X-100). Substrate kinetics were analysed using Michaelis-Menten kinetics with a weighted non-linear regression program (Easterby, 1996). Since sphingosine and its analogues were added to the enzyme assays in mixed micelles with Triton X-100, where they exibit surface dilution kinetics (Buehrer and Bell. 1992), all K, and KC values obtained for these molecules were expressed as mol % of Triton X-100, rather than as bulk solution concentrations. […]
Thermal stabilities of the native and recombinant sphingosine kinases were determined by assaying the residual activity remaining after preincubation of the enzymes at various temperatures (4 to 80° C.) for 30 min at pH 7.4 (50 mM Tris/HCl containing 10% glycerol, 0.5M NaCl and 0.05% Triton X-100). […]

Substrate in series [5]: CCCCCCCCCCCCC/C=C/[C@@H](O)[C@@H](N)CO
The series can be described thus: Sphingosine kinase enzyme assay with recombinant human SK expressed in E. coli. The format is biochemical. The conditions noted are these: other: Recombinant SK.

[6] abbreviates: sphingosine supplied as a sphingosine-BSA complex.
Where [7] appears, read: substrate kinetics, bulk solution concentration.

As for TNFα, in series [1] (hSK-transfected HEK293 cells, TNFα 1 ng/ml, 10 min), the “Increase in sphingosine kinase activity after TNFα treatment” value is “approximately 2 fold”. For the same molecule, the “Total sphingosine kinase activity in cell extract” value in series [2] turned out to be 136 U/mg proteins.

B1: native sphingosine kinase (human placenta SK1) (Homo sapiens) (protein)
chain: MDPAGGPRGVLPRPCRVLVLLNPRGGKGKALQLFRSHVQPLLAEAEISFTLMLTERRNHARELVRSEELGRWDALVVMSGDGLMHEVVNGLMERPDWETAIQKPLCSLPAGSGNALAASLNHYAGYEQVTNEDLLTNCTLLLCRRLLSPMNLLSLHTASGLRLFSVLSLAWGFIADVDLESEKYRRLGEMRFTLGTFLRLAALRTYRGRLAYLPVGRVGSKTPASPVVVQQGPVDAHLVPLEEPVPSHWTVVPDEDFVLVLALLHSHLGSEMFAAPMGRCAAGVMHLFYVRAGVSRAMLLRLFLAMEKGRHMEYECPYLVYVPVVAFRLEPKDGKGVFAVDGELMVSEAVQGQVHPNYFWMVSGCVEPPPSWKPQQMPPPEEPL
notes: from tissue; host or cells: human placenta
As usually defined, the kcat is the maximal rate divided by the concentration of active sites. For orientation: Km means the substrate concentration at which the rate is half of its maximum. By kcat/Km is commonly meant the second-order rate constant that governs catalysis at low substrate concentration. In the case of B1, the catalytic constant (kcat) in series [3] (setting [6]) turned out to be 28 s⁻¹. Further, in series [3] (setting [7]), the Michaelis-Menten constant (Km) is 14 ± 2 µM, the catalytic constant (kcat) came out at 50 s⁻¹ and the kcat/Km amounted to 3.6e+06 M⁻¹ s⁻¹.

B2: native sphingosine kinase: sphingosine kinase SK1 purified to homogeneity from human placenta (protein, UniProt Q9NYA1 1-384, looked up)
Sphingosine kinase 1: MDPAGGPRGVLPRPCRVLVLLNPRGGKGKALQLFRSHVQPLLAEAEISFTLMLTERRNHARELVRSEELGRWDALVVMSGDGLMHEVVNGLMERPDWETAIQKPLCSLPAGSGNALAASLNHYAGYEQVTNEDLLTNCTLLLCRRLLSPMNLLSLHTASGLRLFSVLSLAWGFIADVDLESEKYRRLGEMRFTLGTFLRLAALRTYRGRLAYLPVGRVGSKTPASPVVVQQGPVDAHLVPLEEPVPSHWTVVPDEDFVLVLALLHSHLGSEMFAAPMGRCAAGVMHLFYVRAGVSRAMLLRLFLAMEKGRHMEYECPYLVYVPVVAFRLEPKDGKGVFAVDGELMVSEAVQGQVHPNYFWMVSGCVEPPPSWKPQQMPPPEEPL
Regarding B2, the “pH of maximum activity” value in series [4] is 7.4.

B3: recombinant sphingosine kinase: hSK expressed as GST fusion in E. coli BL21, thrombin-cleaved and purified (protein)
chain: MDPAGGPRGVLPRPCRVLVLLNPRGGKGKALQLFRSHVQPLLAEAEISFTLMLTERRNHARELVRSEELGRWDALVVMSGDGLMHEVVNGLMERPDWETAIQKPLCSLPAGSGNALAASLNHYAGYEQVTNEDLLTNCTLLLCRRLLSPMNLLSLHTASGLRLFSVLSLAWGFIADVDLESEKYRRLGEMRFTLGTFLRLAALRTYRGRLAYLPVGRVGSKTPASPVVVQQGPVDAHLVPLEEPVPSHWTVVPDEDFVLVLALLHSHLGSEMFAAPMGRCAAGVMHLFYVRAGVSRAMLLRLFLAMEKGRHMEYECPYLVYVPVVAFRLEPKDGKGMFAVDGELMVSEAVQGQVHPNYFWMVSGCVEPPPSWKPQQMPPPEEPL
Take B3: in series [4], the “pH of maximum activity” value came to 7.4.

B4: hSK: human sphingosine kinase encoded by the cloned cDNA, SEQ ID NO:2 (protein)
chain: MDPAGGPRGVLPRPCRVLVLLNPRGGKGKALQLFRSHVQPLLAEAEISFTLMLTERRNHARELVRSEELGRWDALVVMSGDGLMHEVVNGLMERPDWETAIQKPLCSLPAGSGNALAASLNHYAGYEQVTNEDLLTNCTLLLCRRLLSPMNLLSLHTASGLRLFSVLSLAWGFIADVDLESEKYRRLGEMRFTLGTFLRLAALRTYRGRLAYLPVGRVGSKTPASPVVVQQGPVDAHLVPLEEPVPSHWTVVPDEDFVLVLALLHSHLGSEMFAAPMGRCAAGVMHLFYVRAGVSRAMLLRLFLAMEKGRHMEYECPYLVYVPVVAFRLEPKDGKGMFAVDGELMVSEAVQGQVHPNYFWMVSGCVEPPPSWKPQQMPPPEEPL
For the molecule B4, the “Increase in sphingosine kinase activity on transient expression” value in series [1] (HEK293 cells, pcDNA3-hSK, versus untransfected or empty vector) was 3200 fold.

B5: recombinant human sphingosine kinase (Homo sapiens) (protein)
chain: MDPAGGPRGVLPRPCRVLVLLNPRGGKGKALQLFRSHVQPLLAEAEISFTLMLTERRNHARELVRSEELGRWDALVVMSGDGLMHEVVNGLMERPDWETAIQKPLCSLPAGSGNALAASLNHYAGYEQVTNEDLLTNCTLLLCRRLLSPMNLLSLHTASGLRLFSVLSLAWGFIADVDLESEKYRRLGEMRFTLGTFLRLAALRTYRGRLAYLPVGRVGSKTPASPVVVQQGPVDAHLVPLEEPVPSHWTVVPDEDFVLVLALLHSHLGSEMFAAPMGRCAAGVMHLFYVRAGVSRAMLLRLFLAMEKGRHMEYECPYLVYVPVVAFRLEPKDGKGVFAVDGELMVSEAVQGQVHPNYFWMVSGCVEPPPSWKPQQMPPPEEPL
notes: The full length SPHK cDNA cloned into pGEX4T2 was transformed into E. coli BL21; GST (N, cleaved yes); made in house; host or cells: E. coli BL21
For the molecule B5, the kcat in series [5] (setting [6]) was 39 s⁻¹. In addition, in series [5] (setting [7]), the Km turned out to be 12 ± 3 µM, the kcat turned out to be 85 s⁻¹ and the kcat/Km was 7.1e+06 M⁻¹ s⁻¹.

The values above are taken from patent US6730480B1, “Sphingosine kinase enzyme” (Johnson & Johnson Pharmaceutical Research and Development …, priority 1999, dated 2004).
